From PMC4033627 (Biochemistry, 2014)

Key:
[1] = molecular target: ubiquitin (from a pRSETA plasmid, for isothermal titration calorimetry) (UniProt P0CG48 1-76); assay: ITC
[2] = molecular target: human ubiquitin (from pGEX-6P1) (human, UniProt P0CG48 1-76); assay: crystal structure

Kd [1] [µM] | binding result [2] | Binder
10.2 ± 0.6 |  | catalytic domain of Sst2 (residues 245–435), Sst2^cat (domain or fragment) AGTFKIHAYTEGGKPLRTIYLPKLLKKVFLDVVKPNTKKNLETCGILCGKLRQNAFFITHLVIPLQEATSDTCGTTDEASLFEFQDKHNLLTLGWIHTHPTQTCFMSSVDLHTHCSYQLMLPEAIAIVMAPSKNTSGIFRLLDPEGLQTIVKCRKPGLFHPHEGKVYTMVAQPGHVREINSKLQVVDLRVK
 | binds | Sst2^catD354A (Asp354Ala mutant of the catalytic domain of Sst2) (domain or fragment) AGTFKIHAYTEGGKPLRTIYLPKLLKKVFLDVVKPNTKKNLETCGILCGKLRQNAFFITHLVIPLQEATSDTCGTTDEASLFEFQDKHNLLTLGWIHTHPTQTCFMSSVALHTHCSYQLMLPEAIAIVMAPSKNTSGIFRLLDPEGLQTIVKCRKPGLFHPHEGKVYTMVAQPGHVREINSKLQVVDLRVK
3 ± 0.56 |  | Sst2^catE286A (Glu286Ala mutant of the catalytic domain of Sst2) (domain or fragment) AGTFKIHAYTEGGKPLRTIYLPKLLKKVFLDVVKPNTKKNLATCGILCGKLRQNAFFITHLVIPLQEATSDTCGTTDEASLFEFQDKHNLLTLGWIHTHPTQTCFMSSVDLHTHCSYQLMLPEAIAIVMAPSKNTSGIFRLLDPEGLQTIVKCRKPGLFHPHEGKVYTMVAQPGHVREINSKLQVVDLRVK
